The supplement of paper PMC10567573

Test: protein stability index of a GFP-peptide fusion (GPS, HEK-293T) (PSI 1-6); higher = more stable
Conditions: c terminus: native
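Note: lentivirally expressed fusion library, cells FACS-sorted into six equal-sized GFP/DsRed ratio bins, PSI computed from sequencing read fractions per bin weighted by bin number.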

Q: With DGWIRVSSDNVADLHEKYSGSTPL [PSMB5 addL] as the protein, how does the protein stability index (parent: NP_002788.1) read?
A: 3.47

Q: Which protein stability index (parent: NP_006221.1) does the source give for CQPISFSGFGAEDDDLGGLGLGPL [POLD2 addL] here?
A: 2.66

Q: Which protein stability index (parent: NP_009172.2) does the source give for LPALFTDLYSQEITAEEAREALPL [SNF8 addL] here?
A: 3.71

Q: Which protein stability index (parent: NP_015628.1) does the source give for EQRNSRWNTVLRAVKAKTHHLEPL [TRPA1 addL] here?
A: 4.2
